Source: patent US20230192789A1, “STRUCTURALLY-STABILIZED AND HDMX-SELECTIVE P53 PEPTIDES AND USES THEREOF” (Dana-Farber Cancer Institute, Inc., priority 2020, published 2023)
One block for each molecule: values may come before it. Bridges are numbered along the chain shown (N, C = ends). Where no end group is shown, it is not given here. [ ]: non-standard residue; d: D form. The star is where a group is joined. Biotin = O=C1N[C@H]2[C@H](CS[C@H]2CCCCC(=O)*)N1; R8 = C=CCCCCCC[C@@](C)(N)C(=O)O; Cba = N[C@@H](CC1CCC1)C(=O)O; S5 = C=CCCC[C@](C)(N)C(=O)O

What was measured:
[1] = target: T1, recombinant HDMX (amino acids 1-490 of SEQ ID NO:104) (Homo sapiens, UniProt O15151); test: Competitive streptavidin pull-down of biotinylated peptides with 1:1 recombinant HDM2/HDMX mixture, HDMX western; type: binding; conditions: biotinylated stapled peptide, 1:1 mixture of recombinant HDM2 and HDMX
T1 construct: thioredoxin (N, cleaved yes); S tag (N, cleaved yes); hexahistidine (N, cleaved yes); made in house; host or cells: E. coli (inferred: pET32-LIC vector, handled as described for HDM2 in BL21(DE3))
T1 sequence (O15151 1-490): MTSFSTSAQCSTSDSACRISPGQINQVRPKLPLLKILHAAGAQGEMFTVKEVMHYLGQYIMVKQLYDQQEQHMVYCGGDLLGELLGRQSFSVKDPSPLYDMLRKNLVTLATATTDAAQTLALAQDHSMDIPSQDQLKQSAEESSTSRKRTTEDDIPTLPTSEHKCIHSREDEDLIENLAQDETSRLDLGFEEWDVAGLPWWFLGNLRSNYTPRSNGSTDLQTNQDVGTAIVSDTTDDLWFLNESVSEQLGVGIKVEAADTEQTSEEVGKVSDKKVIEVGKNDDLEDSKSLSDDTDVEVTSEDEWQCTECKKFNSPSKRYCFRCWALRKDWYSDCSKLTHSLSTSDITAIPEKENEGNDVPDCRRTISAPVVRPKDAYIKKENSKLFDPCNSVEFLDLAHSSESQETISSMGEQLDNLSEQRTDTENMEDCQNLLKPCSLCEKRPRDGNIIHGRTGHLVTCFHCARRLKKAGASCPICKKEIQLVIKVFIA

[2] = target: T2, recombinant HDM2 (amino acids 17-125 of SEQ ID NO:103) (human, UniProt Q00987 17-125); test: streptavidin pull-down of biotinylated peptide with recombinant HDM2 and HDMX (1:1 mixture per paragraph 301), western blot
T2 construct: also called MDM2; not shown: thrombin cleavage site (pET28a vector)
T2 sequence (Q00987 other isoform, or with tags, fused parts or gaps): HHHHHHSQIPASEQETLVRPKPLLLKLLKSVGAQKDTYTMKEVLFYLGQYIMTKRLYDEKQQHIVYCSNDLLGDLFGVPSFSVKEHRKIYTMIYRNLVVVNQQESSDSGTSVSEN

Molecule: LTF8EYWEQBXSAA (LTF[R8]EYWEQ[Cba][S5]SAA-NH2; staple 4-11; not fully specified (N-terminus); printed as LTF8EYWEQBXSAA) [ATSP-7041 A24E]
HDMX versus HDM2 binding selectivity [1]: restored dual HDM2/HDMX binding selectivity
HDMX versus HDM2 binding selectivity ([1]; listed as SEQ ID NO:77): dual-selectivity to HDMX and HDM2

HDMX versus HDM2 binding selectivity [1]: HDMX selectivity over HDM2
HDMX versus HDM2 binding selectivity ([1]; listed as SEQ ID NO:8): selectivity to HDMX
Molecule: SAH-p53-4 D21A: Formula (I) stapled peptide: [Xaa]w LSQETF, [Xaa]x ALWKLL, [Xaa]y EN (LSQETF[R8]ALWKLL[S5]EN-NH2; staple 7-14; not fully specified (N-terminus))

HDMX versus HDM2 binding selectivity [1]: dual selectivity to HDMX and HDM2
Molecule: SAH-p53-4 D21E: Formula (I) stapled peptide: [Xaa]w LSQETF, [Xaa]x ELWKLL, [Xaa]y EN (LSQETF[R8]ELWKLL[S5]EN-NH2; staple 7-14; not fully specified (N-terminus))

HDMX versus HDM2 binding selectivity [1]: dual selectivity to HDMX and HDM2
Molecule: SAH-p53-4 D21R: Formula (I) stapled peptide: [Xaa]w LSQETF, [Xaa]x RLWKLL, [Xaa]y EN (LSQETF[R8]RLWKLL[S5]EN-NH2; staple 7-14; not fully specified (N-terminus))

HDMX versus HDM2 binding selectivity [1]: dual selectivity to HDMX and HDM2
Molecule: SAH-p53-4 E17R: Formula (I) stapled peptide: [Xaa]w LSQRTF, [Xaa]x DLWKLL, [Xaa]y EN (LSQRTF[R8]DLWKLL[S5]EN-NH2; staple 7-14; not fully specified (N-terminus))

HDMX versus HDM2 binding selectivity [1]: dual selectivity to HDMX and HDM2
Molecule: SAH-p53-4 E28R: Formula (I) stapled peptide: [Xaa]w LSQETF, [Xaa]x DLWKLL, [Xaa]y RN (LSQETF[R8]DLWKLL[S5]RN-NH2; staple 7-14; not fully specified (N-terminus))

HDMX versus HDM2 binding selectivity [1]: selectivity to HDM2
Molecule: SAH-p53-4 K24A: Formula (I) stapled peptide: [Xaa]w LSQETF, [Xaa]x DLWALL, [Xaa]y EN (LSQETF[R8]DLWALL[S5]EN-NH2; staple 7-14; not fully specified (N-terminus))

HDMX versus HDM2 binding selectivity [1]: dual selectivity to HDMX and HDM2
Molecule: SAH-p53-4 K24R: Formula (I) stapled peptide: [Xaa]w LSQETF, [Xaa]x DLWRLL, [Xaa]y EN (LSQETF[R8]DLWRLL[S5]EN-NH2; staple 7-14; not fully specified (N-terminus))

HDMX versus HDM2 binding selectivity [1]: dual selectivity to HDMX and HDM2
Molecule: SAH-p53-4 L14A: Formula (I) stapled peptide: [Xaa]w ASQETF, [Xaa]x DLWKLL, [Xaa]y EN (ASQETF[R8]DLWKLL[S5]EN-NH2; staple 7-14; also: biotinylated)

HDMX versus HDM2 binding selectivity [1]: selectivity to HDM2
Molecule: SAH-p53-4 L14E: Formula (I) stapled peptide: [Xaa]w ESQETF, [Xaa]x DLWKLL, [Xaa]y EN (ESQETF[R8]DLWKLL[S5]EN-NH2; staple 7-14; also: biotinylated)

HDMX versus HDM2 binding selectivity [1]: dual selectivity to HDMX and HDM2
Molecule: SAH-p53-4 L22A: Formula (I) stapled peptide: [Xaa]w LSQETF, [Xaa]x DAWKLL, [Xaa]y EN (LSQETF[R8]DAWKLL[S5]EN-NH2; staple 7-14; also: biotinylated)

HDMX versus HDM2 binding selectivity [1]: dual selectivity to HDMX and HDM2
Molecule: SAH-p53-4 L22E: Formula (I) stapled peptide: [Xaa]w LSQETF, [Xaa]x DEWKLL, [Xaa]y EN (LSQETF[R8]DEWKLL[S5]EN-NH2; staple 7-14; also: biotinylated)

HDMX versus HDM2 binding selectivity [1]: dual selectivity to HDMX and HDM2
Molecule: SAH-p53-4 L25A: Formula (I) stapled peptide: [Xaa]w LSQETF, [Xaa]x DLWKAL, [Xaa]y EN (LSQETF[R8]DLWKAL[S5]EN-NH2; staple 7-14; also: biotinylated)

HDMX versus HDM2 binding selectivity [1]: dual selectivity to HDMX and HDM2
Molecule: SAH-p53-4 L25E: Formula (I) stapled peptide: [Xaa]w LSQETF, [Xaa]x DLWKEL, [Xaa]y EN (LSQETF[R8]DLWKEL[S5]EN-NH2; staple 7-14; not fully specified)

HDMX versus HDM2 binding selectivity [1]: dual selectivity to HDMX and HDM2
Molecule: SAH-p53-4 L25R: Formula (I) stapled peptide: [Xaa]w LSQETF, [Xaa]x DLWKRL, [Xaa]y EN (LSQETF[R8]DLWKRL[S5]EN-NH2; staple 7-14; not fully specified)

HDMX versus HDM2 binding selectivity [1]: dual selectivity to HDMX and HDM2
Molecule: SAH-p53-4 N29E: Formula (I) stapled peptide: [Xaa]w LSQETF, [Xaa]x DLWKLL, [Xaa]y EE (LSQETF[R8]DLWKLL[S5]EE-NH2; staple 7-14; not fully specified)

HDMX versus HDM2 binding selectivity [1]: HDMX selectivity over HDM2
HDMX versus HDM2 binding selectivity ([1]; listed as SEQ ID NO:29): selectivity to HDMX
Molecule: SAH-p53-4 N29R: Formula (I) stapled peptide: [Xaa]w LSQETF, [Xaa]x DLWKLL, [Xaa]y ER (LSQETF[R8]DLWKLL[S5]ER-NH2; staple 7-14; not fully specified (N-terminus))

HDMX versus HDM2 binding selectivity [1]: dual selectivity to HDMX and HDM2
Molecule: SAH-p53-4 Q16A: Formula (I) stapled peptide: [Xaa]w LSAETF, [Xaa]x DLWKLL, [Xaa]y EN (LSAETF[R8]DLWKLL[S5]EN-NH2; staple 7-14; not fully specified)

HDMX versus HDM2 binding selectivity [1]: HDMX selectivity over HDM2
HDMX versus HDM2 binding selectivity ([1]; listed as SEQ ID NO:32): selectivity to HDMX
Molecule: SAH-p53-4 Q16E: Formula (I) stapled peptide: [Xaa]w LSEETF, [Xaa]x DLWKLL, [Xaa]y EN (LSEETF[R8]DLWKLL[S5]EN-NH2; staple 7-14; not fully specified (N-terminus))

HDMX versus HDM2 binding selectivity [1]: dual selectivity to HDMX and HDM2
Molecule: SAH-p53-4 Q16R: Formula (I) stapled peptide: [Xaa]w LSRETF, [Xaa]x DLWKLL, [Xaa]y EN (LSRETF[R8]DLWKLL[S5]EN-NH2; staple 7-14; not fully specified)

HDMX versus HDM2 binding selectivity [1]: selectivity to HDM2
Molecule: SAH-p53-4 S15A: Formula (I) stapled peptide: [Xaa]w LAQETF, [Xaa]x DLWKLL, [Xaa]y EN (LAQETF[R8]DLWKLL[S5]EN-NH2; staple 7-14; not fully specified)

HDMX versus HDM2 binding selectivity [1]: selectivity to HDM2
Molecule: SAH-p53-4 S15E: Formula (I) stapled peptide: [Xaa]w LEQETF, [Xaa]x DLWKLL, [Xaa]y EN (LEQETF[R8]DLWKLL[S5]EN-NH2; staple 7-14; not fully specified)

HDMX versus HDM2 binding selectivity [1]: selectivity to HDM2
Molecule: SAH-p53-4 S15R: Formula (I) stapled peptide: [Xaa]w LRQETF, [Xaa]x DLWKLL, [Xaa]y EN (LRQETF[R8]DLWKLL[S5]EN-NH2; staple 7-14; not fully specified)

HDMX versus HDM2 binding selectivity [1]: dual selectivity to HDMX and HDM2
Molecule: SAH-p53-4 T18A: Formula (I) stapled peptide: [Xaa]w LSQEAF, [Xaa]x DLWKLL, [Xaa]y EN (LSQEAF[R8]DLWKLL[S5]EN-NH2; staple 7-14; not fully specified)

HDMX versus HDM2 binding selectivity [1]: dual selectivity to HDMX and HDM2
Molecule: SAH-p53-4 T18E: Formula (I) stapled peptide: [Xaa]w LSQEEF, [Xaa]x DLWKLL, [Xaa]y EN (LSQEEF[R8]DLWKLL[S5]EN-NH2; staple 7-14; not fully specified)

HDMX versus HDM2 binding selectivity [1]: selectivity to HDM2
Molecule: SAH-p53-4 T18R: Formula (I) stapled peptide: [Xaa]w LSQERF, [Xaa]x DLWKLL, [Xaa]y EN (LSQERF[R8]DLWKLL[S5]EN-NH2; staple 7-14; not fully specified)

binding result [2]: no binding
Molecule: LTF[R8]EYWAQE[S5]SAA-NH2 (staple 4-11; not fully specified; printed as LTF8EYWAQEXSAA, also called ATSP B26E; LTF8EYWAQEXSAA) [ATSP-7041 B26E]

binding result [2]: no binding
B1: ATSP-7041 B26C (peptide)
peptide: Biotin-LTF[R8]EYWAQC[S5]SAA-NH2
modifications: staple 4-11
SMILES: CC(C)C[C@H](NC(=O)CCCC[C@@H]1SC[C@@H]2NC(=O)N[C@@H]21)C(=O)N[C@H](C(=O)N[C@@H](Cc1ccccc1)C(=O)N[C@]1(C)CCCCCCC=CCCC[C@@](C)(C(=O)N[C@@H](CO)C(=O)N[C@@H](C)C(=O)N[C@@H](C)C(N)=O)NC(=O)[C@H](CS)NC(=O)[C@H](CCC(N)=O)NC(=O)[C@H](C)NC(=O)[C@H](Cc2c[nH]c3ccccc23)NC(=O)[C@H](Cc2ccc(O)cc2)NC(=O)[C@H](CCC(=O)O)NC1=O)[C@@H](C)O
